# Laboratory results as given in the nanobody polyreactivity screen of Harvey et al. (2022).
# Test: yeast display, Sf9 membrane polyspecificity reagent, FACS + sequencing; frameworks hold sequencing errors
# In short: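 Nanobodies came from a synthetic yeast display library in Saccharomyces cerevisiae BJ5465, induced with galactose for 36–48 hours and stained for 1 hour at 4 °C with 10% biotinylated, detergent-solubilized Sf9 membrane reagent. Cells were enriched on streptavidin microbeads and then FACS-sorted, with low and high (top ~1%) gates set on anti-HA fluorescence for expression and streptavidin fluorescence for reagent binding. Each polyreactivity label reflects the gate a clone came from. Genes were amplified by colony PCR, sequenced by MiSeq 2 × 250 and filtered by CDR length.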
row,Sequence,polyreactivity (PSR sort gate)
1,QVQLVESGGGLVQAGGSLRLSCAASGFIFKGNAMGWYRQAPGKERELVAAISYSGGSTYYADSVKGRFTISRDNAKNTVYLQMNSLKPEDTAVYYCAALRWYHYGYWGQGTQVNVSS,high polyreactivity
2,QVQLVESGGGLVQAGGSLRLSCAASGFIFKGYAMGWYRQAPGKERELVAAISQRGSSTYYADSVKGRFTISRDNAKNTVYLQMNSLKPEDTAVYYCNALRHSKLDYYSWGQGTQVTVSS,high polyreactivity
3,QVQLVESGGGLVQAGGSLRLSCAASGFIFKIYTMGWYRQAPGKERELVAAITRRGGRTFYADSVKGRFTISRDNAKNTVYLQMNSLKPEDTAVYYCNAGTKYGTYIATGALKHDYWGQGTQVTVSS,low polyreactivity
4,QVQLVESGGGLVQAGGSLRLSCAASGFIFKRYAMGWYRQAPGKEREFVAAISWGGGNTYYADSVKGRFTISRDNAKNTVYLQMNSLKPEDTAVYYCAKVTSALKYGYWGQGTQVTVSS,high polyreactivity
5,QVQLVESGGGLVQAGGSLRLSCAASGFIFKRYAMGWYRQAPGKERELVAAITLSGGDTYYADSVKGRFTISRDNAKNTVYLQMNSLKPEDTAVYYCAARYMSTRTLYYYWGQGTQVTVSS,high polyreactivity
6,QVQLVESGGGLVQAGGSLRLSCAASGFIFKRYSMGWYRQAPGKERELVAAITSGGSTHYADSVKGRFTISRDNAKNTVYLQMNSLKPEDTAVYYCATRRYKWGVRYDYWGQGTQVTVSS,high polyreactivity
7,QVQLVESGGGLVQAGGSLRLSCAASGFIFKSYAMGWYRQAPGKERELVAGITRRGGSTYYADSVKGRFTISRDNSKNSVYFQMISLKPEDTAVYYCNAGRKTADYDYWGQGTQVTVSS,high polyreactivity
8,QVQLVESGGGLVQAGGSLRLSCAASGFIFKSYTMGWYRQAPGKERELVADISKSGGSTYYADSVKGRFTISRDNAKNTVYLQMNSLKPEDTAVYYCNADIWLYVNNYSEYDYWGQGTQVTVSS,high polyreactivity
9,QVQLVESGGGLVQAGGSLRLSCAASGFIFLAYTMGWYRQAPGKERELVAAISASGGRTYYADSVKGRFTISRDNAKNTVYLQMNSLKPEDTAVYYCAAAGGRFIRYGYWGQGTQVTVSS,high polyreactivity
10,QVQLVESGGGLVQAGGSLRLSCAASGFIFLDYAMGWYRQAPGKERELVAAISSRGARTYYADSVKGRFTISRDNAKNTVYVQMNSLKPEDTAVYYCAARGPLDRYGYWGQGTQVTVSS,high polyreactivity
11,QVQLVESGGGLVQAGGSLRLSCAASGFIFLENDMGWYRQAPGKERELVASINSGSDTNYADSVKGRFTISRDNAKNTVYLQMNSLKPEDTAVYYCNASYNGVPARYDYWGQGTQVTVSS,low polyreactivity
12,QVQLVESGGGLVQAGGSLRLSCAASGFIFLETDKGWYRQAPGKERELVASINSGTNTYYADSLKGRFTISRDNAKNTVYVEMNSLKPEDSAVYYCNADDAYLVTQPYDDNYDYWGQGTQVTVSS,low polyreactivity
13,QVQLVESGGGLVQAGGSLRLSCAASGFIFLGNAMGWYRQAPGKERELVASISRGGSTNYADSVKGRFTISRDNAKNTVYLQMNSLKPEDTAVYYCAADLSDKFGYWGQGTQVTVSS,low polyreactivity
14,QVQLVESGGGLVQAGGSLRLSCAASGFIFLLNAMGWYRQAPGKERELVAAISWGGGSTYYADSVKGRFTISRDNAKNTVYLQMNSLKPEDTAVYYCAAKPGKTPLTGHRGPYDTGYGYWGQGTQVTVSS,low polyreactivity
15,QVQLVESGGGLVQAGGSLRLSCAASGFIFLPYFMAWYRQAHGKERELVAAISGVGGITYYADSVKGRFTISRDNAKNTVYLQMNSLKPEDTAVYYCAAESSYFVALNQFYTVEFYYWGQGTQVTVSS,low polyreactivity
16,QVQLVESGGGLVQAGGSLRLSCAASGFIFLQYADMGWYRQAPGKERELVAAISYIGGSTYYADSVKGRFTISRDNAKNTVYLQMNSLKPEDTAVYYCAAEYSTAFGEYYYWGQGTQVTVSS,high polyreactivity
17,QVQLVESGGGLVQAGGSLRLSCAASGFIFLSYAMGRYRQAPGKERELVAAISGRGGSTYYADSVKGRFTISRDNAKNTVYLQMNSLKPEDTAVYYCAVRRYRFPPGDYWGQGTQVTVSS,high polyreactivity
18,QVQLVESGGGLVQAGGSLRLSCAASGFIFLYAMGWSRQAPRKERELVAAISWSDTSTYYADSVKGRFTISRDNAKNTVYLQMNSLIPEDTAVYFCNAETWNYGDFDYWGQGTQVTVSS,high polyreactivity
19,QVQLVESGGGLVQAGGSLRLSCAASGFIFLYYAMGWYRQAPGKERELVADSSRGADTKYADSVKGRFTISRDNAKNNVYLQMNSLKPVDTAVYYCAARTGWPRVGFQFPAHVGFDYWGQGTQVTVSS,low polyreactivity
20,QVQLVESGGGLVQAGGSLRLSCAASGFIFNAYAMGWYRQAPGKERELVAAISTRCSNTYYADSVKGRFTISRDNAMNTVFLQMNSLIPEDTAVYYCAARGYVTYSKSNYWGQGTQVTVSS,high polyreactivity
21,QVQLVESGGGLVQAGGSLRLSCAASGFIFNKYAMGWYRQAPGKERELVATIRRDGSTNYADSVKGRFTISRDNAKNTVYLQMNSLKPEDTAVYYCAVRPYYWSRDYYWGQGTQVTVSS,high polyreactivity
22,QVQLVESGGGLVQAGGSLRLSCAASGFIFNRNAMGWYRQAPGKEREFVAAISTRGAGTYYADSVKGRFTISRDNAKNTVYLQMNSLKPEDTAVYYCAADKFRYGYYNRYSKVGYDYWGQGTQVTVSS,high polyreactivity

row,Sequence,polyreactivity (PSR sort gate)
1,QVQLVESGGGLVQAGGSLRLSCAASGFIFNRYAMGWYRQAPGKERELVAAISYRGGGTYYADSVKGRFTISRDNAKNTVYLQMNSLKPEDTAVYYCAADSSYYYPMDYWGQGTQVTVSS,high polyreactivity
2,QVQLVESGGGLVQAGGSLRLSCAASGFIFNRYAMGWYRQAPGKERELVADITGGSTYYADSVKGLFTISRDNAKNTVFLQMNSLKPEDTAVYYCAADVLRISTLLFRGPGFDSWGQGTQVTVSS,low polyreactivity
3,QVQLVESGGGLVQAGGSLRLSCAASGFIFNSYAMGWYRQAPGKERELVATITNGGTTNYADSVKGRFTLSRDNATITVYLQMNSLKPEDTAVYYCAAVGPSVYHEYDYWGQGTQVTVSS,low polyreactivity
4,QVQLVESGGGLVQAGGSLRLSCAASGFIFNYNTMGWYRQAPGKERELVAAITWSGVSTYADSVKGRFTISRDNAKNTVYLQMNSLKPEDTAVYYCAASPYQRESVYDFGYDYWGQGTQVTVSS,low polyreactivity
5,QVQLVESGGGLVQAGGSLRLSCAASGFIFNYYAMGWYRQAPGKEREFVAAITWRGGSTNYADSVKGRFTISRDNAKNTVYLQMNSLKPEDTAVYYCAAYSVWGGSYLALDYWGQGTQVTVSS,low polyreactivity
6,QVQLVESGGGLVQAGGSLRLSCAASGFIFNYYGMGWYRQAPGKERELVATISGSGGSTYYADSVKGRFTISRDNAKNTVYLQMNSLKPEDTAVYYCNRYPPVHNVGEAYGTLHGYYWGQGTQVTVSS,low polyreactivity
7,QVQLVESGGGLVQAGGSLRLSCAASGFIFNYYVMGWYRQAPGKERELVATISWRGGRTYYADSVKGRFTISRDNAKNTVYLQMKSLKPEDTAVFYCAKESYYFTRYDYWGQGTQVTVSS,low polyreactivity
8,QVQLVESGGGLVQAGGSLRLSCAASGFIFPANAMGWSRQAPGKERELVAAINYSGGSTYYADSVKGRFTISRDNAKNTVYLQMNSLKPEDTAVYYCNADFYVVGVTTVDLSGYDSWGQGTQVTVSS,low polyreactivity
9,QVQLVESGGGLVQAGGSLRLSCAASGFIFPAYAMGWYRQAPGKERELVAAITSNGGSTYYADSVKGRFTITRDNAKNTVYLQMNSLKPEDTAVYYCNADWYWDYGWVYPEYYYWGQGTQVTVSS,high polyreactivity
10,QVQLVESGGGLVQAGGSLRLSCAASGFIFPFYVRGWYRQAPGKERELVAAINTGGSTYYADSVKGRFTISRDNAKNTVYLQMNSLKPEDTAVYYCAAKSRVKKYYFYGYNYWGQGTQVTVSS,high polyreactivity
11,QVQLVESGGGLVQAGGSLRLSCAASGFIFPGNMGWYRQAPGKERELVAAISWSGGSTRYADSVKGRFTISRDNAKNTVYLQMNSLKPEDTAVYYCAASLSGKRFTKRYYWGQGTQVTVSS,high polyreactivity
12,QVQLVESGGGLVQAGGSLRLSCAASGFIFPGYAMGWYRQAPGKERELVAAISWSGGRTYYADSVKGRFTISRDNAKNTVYLQMNSLKPEDTAVYYCNARYRQITYEYDYWGQGTQVTVSS,high polyreactivity
13,QVQLVESGGGLVQAGGSLRLSCAASGFIFPLYTMGWDRQAPGKERELVAAISVTGGSTYYADSVKGRFTISRDNAKNTVYLQMNSLKPEDTAVYYCAADLYYIWVYGYSSAMDYWGQGTQVTLSS,high polyreactivity
14,QVQLVESGGGLVQAGGSLRLSCAASGFIFPSNAMGRYRQAPGKERELVAAISSRGTRTYYADSVKGRFTISRDNAKNTVYLQMNCLKPEDTAVYYCAKYGYWGQGTQVTVSS,high polyreactivity
15,QVQLVESGGGLVQAGGSLRLSCAASGFIFPTYAMGWYRQAPGKERELVAAITWSGSDTYYADSVKGRFTISRDNAKNTVYLQMNRLKPEDTAVYYCAAEVSKYGWRYYYWGQGTQVTVSS,low polyreactivity
16,QVQLVESGGGLVQAGGSLRLSCAASGFIFPTYAMGWYRQAPGKERELVATITTNAGGTHYADSVKGRFTISRDNAKNNVYIQMNSLKPEDTAVYYCNAYGPNIYSSRYDYWGQGTQVTVSS,low polyreactivity
17,QVQLVESGGGLVQAGGSLRLSCAASGFIFPYYDMGWYRQAPGKERELVADIDSSGGTTYYADSVKGRFTISRDNAKNTVYLQMNSLKPEDTAVYYCAATYQAWTWYPYYVIYDYWGQGTQVTVSS,high polyreactivity
18,QVQLVESGGGLVQAGGSLRLSCAASGFIFPYYGMGWYRQAPGKERELVATISRSGGRTYYADSVKGRFTISRDNAKNTVYLQMNSLKPEDTAVYYCARTTPYFYVDWGGYDYWGQGTQVTVSS,high polyreactivity
19,QVQLVESGGGLVQAGGSLRLSCAASGFIFQIYAMGWYRQAPGKERELVAAISSGGSTNYADSVKGRFTISRDNAKNTVYLQMNSLKPEDTAVYYCAAATHYWYFYSFKDKSGFRGYYWGQGTQVTVSS,high polyreactivity
20,QVQLVESGGGLVQAGGSLRLSCAASGFIFQKYVMGWSRQAPGKERELVAVISRSGDSTRYADSVKGRFTISRDNAKNTVYLQMNSLKPEDTAVFYCAAASAKFTGTGYYFWGQGTQVTVSS,high polyreactivity
21,QVQLVESGGGLVQAGGSLRLSCAASGFIFQPYVMGWYRQAPGKERELVAAISWNGVSTYYADSVKGRFTISRDNAKNTVYLQMNSLKPEDTAVYYCAASYRYVPGLNYWGQGTQVTVSS,low polyreactivity
